One test concerns the target DDB1–DCAF12–DDA1 complex (human | , UniProt Q5T6F0 1-453; Q5T6F0 1-453; Q9BW61 1-102). The test can be described thus: FP.
Test [1] has as its target biotinylated DCAF12 (Δ1–78) (human, UniProt Q5T6F0 79-453, biotin). The experiment in a line: SPR.

Where no end group is shown, it is not given here. The star is where a group is joined. FITC = O=C1OC2(c3ccc(O)cc3Oc3cc(O)ccc32)c2ccc(NC(=S)*)cc21

In the case of {FITC}-IRKPGESEE [FITC-labeled CCT5 peptide], in the test with DDB1–DCAF12–DDA1 complex, the Kd – broadly, the free concentration of one partner at which half of the binding sites on the other are occupied at equilibrium, for simple one-to-one binding – was 130 nM. The same measure, in the same setting: as for {FITC}-LHEWVLREGEE [FITC-labeled MAGEA3 peptide], the figure is 60 nM. For LHEWVLREGEE [unlabeled MAGEA3 peptide], the koff (in general, the rate constant with which the complex falls apart) in test [1] amounted to 0.06 s⁻¹. On to IRKPGESEE [unlabeled CCT5 peptide], for which the koff in test [1] stood at 0.017 s⁻¹.
